The nature of the data set: protein stability index of a GFP-peptide fusion (GPS, HEK-293T) (PSI 1-6); higher = more stable. The settings on record: c terminus: a fixed tail appended.

± gives the standard deviation.
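Further: 24-mer peptide tiles fused after GFP, lentivirally expressed, FACS-sorted into six equal bins by GFP/DsRed ratio, decoded by Illumina sequencing, PSI is the read-weighted mean bin number.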

In the case of IQGYRVYYTMDPTQHVNNWMKHNV [PTPRD], the protein stability index by setting is: (treatment: DMSO) 2.55 ± 0.25; (treatment: MLN4924 1 uM, 8 h) 2.44 ± 0.47.

Take IQQLLEPQQYMAFLPHHIMVKIFR [FBXO34]: the protein stability index was determined as 2.13 ± 0.31 (treatment: DMSO) and 2.53 ± 0.29 (treatment: MLN4924 1 uM, 8 h).

As to ISENRKRQWPTKSQTDRGASAGKR [SDE2], the protein stability index reads like this: (treatment: DMSO) 4.7 ± 0.28; (treatment: MLN4924 1 uM, 8 h) 4.94 ± 0.073.

For the sequence ISVQELMGCLGVAKEDGKADTKKR [SMOC2], the protein stability index runs as follows: (treatment: DMSO) 3.88 ± 0.33; (treatment: MLN4924 1 uM, 8 h) 3.92 ± 0.59.

For the sequence ITAGGENVPPIPVETLVKKKIPII [ACSBG2], the protein stability index runs as follows: (treatment: DMSO) 3.71 ± 0.32; (treatment: MLN4924 1 uM, 8 h) 3.96 ± 0.34.

Consider ITFSGRPSRVHASEVESAVWYVKK [FBXO39], for which the protein stability index runs as follows: (treatment: DMSO) 2.41 ± 0.21; (treatment: MLN4924 1 uM, 8 h) 2.68 ± 0.32.

With IVNQWSEKFSDEGDSDSALDSVSP [DLC1], the protein stability index runs as follows: (treatment: DMSO) 5.32 ± 0.18; (treatment: MLN4924 1 uM, 8 h) 5.24 ± 0.23.

In turn, IYGRSQNPVQPIGPQTPKACDSKL [MMP1] had a protein stability index (treatment: DMSO) of 4.15 ± 0.17 and a protein stability index (treatment: MLN4924 1 uM, 8 h) of 4.08 ± 0.12.

As to IYRHRIPSTICFGQGAARGFKSNK [ZNF511], the protein stability index by setting is: (treatment: DMSO) 3 ± 0.37; (treatment: MLN4924 1 uM, 8 h) 3.64 ± 0.13.

Regarding KAFWKEDNALWERDRNLLQEDKAL [CCDC70], the protein stability index amounted to 4.16 ± 0.081 (treatment: DMSO) and 4.24 ± 0.18 (treatment: MLN4924 1 uM, 8 h).

Consider KAKFCSTVANDVMLRTGLGVIRMW [NETO1], for which the protein stability index turned out to be 2.7 ± 0.51 (treatment: DMSO) and 2.27 ± 0.29 (treatment: MLN4924 1 uM, 8 h).

For KAMFSGRVEVLTDAGGWVLIDRSG [KCTD13], the protein stability index came out at 2.19 ± 0.21 (treatment: DMSO) and 2.48 ± 0.47 (treatment: MLN4924 1 uM, 8 h).

Turning to KARSNSTLSKSEYMVIEEGGMNHS [KCNA3], the protein stability index turned out to be 4.57 ± 0.38 (treatment: DMSO) and 4.33 ± 0.15 (treatment: MLN4924 1 uM, 8 h).

KCCGMRNTDVSMENMVTVGFFSCM [KCNK9]: the protein stability index came to 2.59 ± 0.48 (treatment: DMSO) and 2.51 ± 0.44 (treatment: MLN4924 1 uM, 8 h).

In the case of KDRECQSQSLALKEQNNLKQLEFG [ZNF8], the protein stability index is, setting by setting: (treatment: DMSO) 4.56 ± 0.3; (treatment: MLN4924 1 uM, 8 h) 4.78 ± 0.63.

KEDNSLLNQGFLQAKPEKAAVAQK [MYBL2]: the protein stability index (treatment: DMSO) amounted to 5.26 ± 0.12 and the protein stability index (treatment: MLN4924 1 uM, 8 h) came to 5.14 ± 0.56.

Regarding KEEKEDEISLEDLIERERSALGPN [ZC3H15], the protein stability index runs as follows: (treatment: DMSO) 5.31 ± 0.35; (treatment: MLN4924 1 uM, 8 h) 5.26 ± 0.37.

For KEHWTPEGHSIVGFAMYYFTYDPW [SAT1], the protein stability index (treatment: DMSO) worked out at 3.05 ± 0.44 and the protein stability index (treatment: MLN4924 1 uM, 8 h) was 3.1 ± 0.43.

On to KEIDDVIDEIISLESSYNDEMLSY [TFE3], for which the protein stability index is, setting by setting: (treatment: DMSO) 3.27 ± 0.26; (treatment: MLN4924 1 uM, 8 h) 3.5 ± 0.3.

As for KETEFLRLKRTRLGLDDFESLKVI [STK38L], the protein stability index by setting is: (treatment: DMSO) 2.44 ± 0.16; (treatment: MLN4924 1 uM, 8 h) 2.56 ± 0.34.

Consider KFSHSGRYMLTRDYLTVKVWDLNM [PPP2R2C], for which the protein stability index was found to be 2.35 ± 0.23 (treatment: DMSO) and 2.33 ± 0.31 (treatment: MLN4924 1 uM, 8 h).

Take KIANLGSCNDSKLEFRSFWELIGE [S100A14]: the protein stability index is 1.91 ± 0.33 (treatment: DMSO) and 2.11 ± 0.38 (treatment: MLN4924 1 uM, 8 h).

With KIGVGAMTWSPLACGIVSGKYDSG [KCNAB2], the protein stability index reads like this: (treatment: DMSO) 2.81 ± 0.27; (treatment: MLN4924 1 uM, 8 h) 2.85 ± 0.61.

As for KIIICSQNEEYLLTYINEDRISTT [PLK2], the protein stability index is 2.02 ± 0.35 (treatment: DMSO) and 2.06 ± 0.36 (treatment: MLN4924 1 uM, 8 h).

Regarding KIRRFNKAKPEPDILEEEKIYAYP [TMEM192], the protein stability index reads like this: (treatment: DMSO) 3.27 ± 0.35; (treatment: MLN4924 1 uM, 8 h) 3.54 ± 0.52.

KKDNHALVRETDELRRNHCFQDFK [ELOA2] had a protein stability index (treatment: DMSO) of 4.11 ± 0.31 and a protein stability index (treatment: MLN4924 1 uM, 8 h) of 4.03 ± 0.3.

KKQDENEGIKVEDLLFIVDTMLEE [CEP70]: the protein stability index by setting is: (treatment: DMSO) 3.25 ± 0.22; (treatment: MLN4924 1 uM, 8 h) 3.27 ± 0.23.

Take KKQLADETLLKVDLENRCQSLTED [LMNB1]: the protein stability index by setting is: (treatment: DMSO) 5.13 ± 0.23; (treatment: MLN4924 1 uM, 8 h) 5.31 ± 0.076.

Sequence KKYVKGDVSLCRWHPKPYCQALPY [FBXO34] registered a protein stability index (treatment: DMSO) of 2.31 ± 0.45 and a protein stability index (treatment: MLN4924 1 uM, 8 h) of 2.05 ± 0.28.

KLDKKLKKMEQNKTAATRYRQKKR [ATF4]: the protein stability index runs as follows: (treatment: DMSO) 4.48 ± 0.16; (treatment: MLN4924 1 uM, 8 h) 4.42 ± 0.23.

In the case of KLGAPLSGLQGLPECTRCGHGIVG [PDLIM4], the protein stability index came to 2.65 ± 0.25 (treatment: DMSO) and 2.75 ± 0.36 (treatment: MLN4924 1 uM, 8 h).

Take KLREFLRVEEQAILDAMAEETRQK [TRIM35]: the protein stability index came to 2.85 ± 0.53 (treatment: DMSO) and 3.34 ± 0.18 (treatment: MLN4924 1 uM, 8 h).

For KLRFNRKKKGMYRKAITEAANAAR [PWWP2B], the protein stability index by setting is: (treatment: DMSO) 3.42 ± 0.23; (treatment: MLN4924 1 uM, 8 h) 3.29 ± 0.2.

Take KMKYKGQYRPSDLLCPETYVWVPI [ATE1]: the protein stability index turned out to be 2.01 ± 0.39 (treatment: DMSO) and 2.03 ± 0.26 (treatment: MLN4924 1 uM, 8 h).

Take KNIIHKTSGKRYVYRFVCDLQNLL [ETS2]: the protein stability index runs as follows: (treatment: DMSO) 2.96 ± 0.48; (treatment: MLN4924 1 uM, 8 h) 2.69 ± 0.6.

For the sequence KNTSEQDQPMGGWEMIRKIGDTSV [LMNB1], the protein stability index is, setting by setting: (treatment: DMSO) 4.27 ± 0.18; (treatment: MLN4924 1 uM, 8 h) 4.43 ± 0.22.

(Values after the supplement of paper PMC10567573.)
